Experimental data reported in US20200262877A1, “ION CHANNEL-BINDING PEPTIDES AND METHODS OF USE THEREOF” (priority 2017, published 2020).

Legend:
5HT3a = target: T1, 5HT3a (Homo sapiens, UniProt P46098); test: Ion channel panel (IonWorks Barracuda): 5HT3a; assay type: cell-based
T1 construct: host or cells: HEK293 or CHO
T1 sequence (P46098 whole entry, looked up): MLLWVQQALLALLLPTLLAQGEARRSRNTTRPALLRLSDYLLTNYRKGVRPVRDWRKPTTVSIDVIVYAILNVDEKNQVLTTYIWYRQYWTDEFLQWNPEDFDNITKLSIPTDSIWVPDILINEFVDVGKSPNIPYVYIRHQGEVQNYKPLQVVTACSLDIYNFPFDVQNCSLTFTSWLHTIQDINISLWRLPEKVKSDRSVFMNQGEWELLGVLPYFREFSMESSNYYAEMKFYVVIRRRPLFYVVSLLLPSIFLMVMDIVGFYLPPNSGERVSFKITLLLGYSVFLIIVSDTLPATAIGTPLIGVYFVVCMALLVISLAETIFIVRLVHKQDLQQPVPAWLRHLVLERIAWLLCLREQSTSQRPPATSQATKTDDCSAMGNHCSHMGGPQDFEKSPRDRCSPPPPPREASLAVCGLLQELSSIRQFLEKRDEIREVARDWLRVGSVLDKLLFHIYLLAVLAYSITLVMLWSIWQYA
Outline: (§1)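 Transfected HEK293 or CHO cells were exposed for at least 5 min to peptides at 200 nM and 20 μM final, tested in duplicate, in HEPES-buffered physiological saline. Activation was taken as peptide-plus-agonist current over control current ×100, and inhibition as 1 minus that ratio ×100. Each channel's control was its own reference compound.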

α3β4 = target: T2, α3β4 (Homo sapiens, UniProt P30926+P32297); test: Ion channel panel (IonWorks Barracuda): α3β4; assay type: cell-based; settings: 100% = no change, <100% = inhibition
T2 construct: host or cells: HEK293 or CHO
Outline: as §1

α4β2 = target: T3, α4β2 (Homo sapiens, UniProt P17787+P43681); test: Ion channel panel (IonWorks Barracuda): α4β2; assay type: cell-based; settings: 100% = no change, <100% = inhibition
T3 construct: host or cells: HEK293 or CHO
Outline: as §1

Cav2.1 = target: T4, Cav2.1 (Homo sapiens, UniProt O00555); test: cell-based; settings: 100% = no change, <100% = inhibition
T4 construct: host or cells: HEK293 or CHO
Outline: as §1

Cav2.2 = target: T5, Cav2.2 (Homo sapiens, UniProt Q00975); test: cell-based; settings: 100% = no change, <100% = inhibition
T5 construct: host or cells: HEK293 or CHO
Outline: as §1

Kv2.1 = target: T6, Kv2.1 (Homo sapiens, UniProt Q14721); test: cell-based; settings: 100% = no change, <100% = inhibition
T6 construct: host or cells: HEK293 or CHO
Outline: as §1

GABA = test: Ion channel panel (IonWorks Barracuda): GABA; assay type: cell-based; settings: 100% = no change, <100% = inhibition
Outline: as §1

Nav1.5 = Nav1.5 (Homo sapiens, UniProt Q14524); test: in vitro; settings: 100% = no change; for Activity of Nav1.5 with peptide, expressed as a percentage of the reference compound: peptide at 0.2 μM; for Activity of Nav1.5 with peptide (percentage of the reference compound): peptide at 20 μM
Outline: as §1

hERG = hERG (Homo sapiens, UniProt Q12809); test: in vitro; settings: 100% = no change, <100% = inhibition
Outline: as §1

Kir2.1 = target: T7, Kir2.1 (Homo sapiens, UniProt P63252); test: Ion channel panel (IonWorks Barracuda): Kir2.1; assay type: cell-based; settings: 100% = no change, <100% = inhibition
T7 construct: host or cells: HEK293 or CHO
Outline: as §1

Kv1.1 = target: T8, Kv1.1 (Homo sapiens, UniProt Q09470); test: cell-based; assay type: cell-based; settings: 100% = no change, <100% = inhibition
T8 construct: host or cells: HEK293 or CHO
Outline: as §1

Kv1.2 = target: T9, Kv1.2 (Homo sapiens, UniProt P16389); test: cell-based; assay type: cell-based; settings: 100% = no change, <100% = inhibition
T9 construct: host or cells: HEK293 or CHO
Outline: as §1

Kv1.3 = target: T10, Kv1.3 (Homo sapiens, UniProt P22001); test: cell-based; assay type: cell-based; settings: 100% = no change, <100% = inhibition
T10 construct: host or cells: HEK293 or CHO
Outline: as §1

Nav1.7 = target: T11, Nav1.7 (Homo sapiens, UniProt Q15858); test: cell-based; assay type: cell-based; settings: 100% = no change; for Activity of Nav1.7 with peptide, expressed as a percentage of the reference compound: peptide at 0.2 μM; for Activity of Nav1.7 with peptide (percentage of the reference compound): peptide at 20 μM
T11 construct: host or cells: HEK293 or CHO

NR2A = target: T12, NR2A (Homo sapiens, UniProt Q12879); test: Ion channel panel (IonWorks Barracuda): NR2A; assay type: cell-based; settings: 100% = no change, <100% = inhibition
T12 construct: host or cells: HEK293 or CHO
Outline: as §1

NR2B = target: T13, NR2B (Homo sapiens, UniProt Q13224); test: Ion channel panel (IonWorks Barracuda): NR2B; assay type: cell-based; settings: 100% = no change, <100% = inhibition
T13 construct: host or cells: HEK293 or CHO
Outline: as §1

TRPA1 = target: T14, TRPA1 (Homo sapiens, UniProt O75762); test: Ion channel panel (IonWorks Barracuda): TRPA1; assay type: cell-based; settings: 100% = no change, <100% = inhibition
T14 construct: host or cells: HEK293 or CHO
Outline: as §1

TRPV1 = target: T15, TRPV1 (Homo sapiens, UniProt Q8NER1); test: Ion channel panel (IonWorks Barracuda): TRPV1; assay type: cell-based; settings: 100% = no change, <100% = inhibition
T15 construct: host or cells: HEK293 or CHO
Outline: as §1

[1] = first of two Nav1.5 columns (probably TP1)
[2] = second of two Nav1.5 columns (probably TP2)
[3] = first of two Nav1.7 columns (probably TP1)
[4] = second of two Nav1.7 columns (probably TP2)

Sequence of Nav1.5 (Q14524 whole entry): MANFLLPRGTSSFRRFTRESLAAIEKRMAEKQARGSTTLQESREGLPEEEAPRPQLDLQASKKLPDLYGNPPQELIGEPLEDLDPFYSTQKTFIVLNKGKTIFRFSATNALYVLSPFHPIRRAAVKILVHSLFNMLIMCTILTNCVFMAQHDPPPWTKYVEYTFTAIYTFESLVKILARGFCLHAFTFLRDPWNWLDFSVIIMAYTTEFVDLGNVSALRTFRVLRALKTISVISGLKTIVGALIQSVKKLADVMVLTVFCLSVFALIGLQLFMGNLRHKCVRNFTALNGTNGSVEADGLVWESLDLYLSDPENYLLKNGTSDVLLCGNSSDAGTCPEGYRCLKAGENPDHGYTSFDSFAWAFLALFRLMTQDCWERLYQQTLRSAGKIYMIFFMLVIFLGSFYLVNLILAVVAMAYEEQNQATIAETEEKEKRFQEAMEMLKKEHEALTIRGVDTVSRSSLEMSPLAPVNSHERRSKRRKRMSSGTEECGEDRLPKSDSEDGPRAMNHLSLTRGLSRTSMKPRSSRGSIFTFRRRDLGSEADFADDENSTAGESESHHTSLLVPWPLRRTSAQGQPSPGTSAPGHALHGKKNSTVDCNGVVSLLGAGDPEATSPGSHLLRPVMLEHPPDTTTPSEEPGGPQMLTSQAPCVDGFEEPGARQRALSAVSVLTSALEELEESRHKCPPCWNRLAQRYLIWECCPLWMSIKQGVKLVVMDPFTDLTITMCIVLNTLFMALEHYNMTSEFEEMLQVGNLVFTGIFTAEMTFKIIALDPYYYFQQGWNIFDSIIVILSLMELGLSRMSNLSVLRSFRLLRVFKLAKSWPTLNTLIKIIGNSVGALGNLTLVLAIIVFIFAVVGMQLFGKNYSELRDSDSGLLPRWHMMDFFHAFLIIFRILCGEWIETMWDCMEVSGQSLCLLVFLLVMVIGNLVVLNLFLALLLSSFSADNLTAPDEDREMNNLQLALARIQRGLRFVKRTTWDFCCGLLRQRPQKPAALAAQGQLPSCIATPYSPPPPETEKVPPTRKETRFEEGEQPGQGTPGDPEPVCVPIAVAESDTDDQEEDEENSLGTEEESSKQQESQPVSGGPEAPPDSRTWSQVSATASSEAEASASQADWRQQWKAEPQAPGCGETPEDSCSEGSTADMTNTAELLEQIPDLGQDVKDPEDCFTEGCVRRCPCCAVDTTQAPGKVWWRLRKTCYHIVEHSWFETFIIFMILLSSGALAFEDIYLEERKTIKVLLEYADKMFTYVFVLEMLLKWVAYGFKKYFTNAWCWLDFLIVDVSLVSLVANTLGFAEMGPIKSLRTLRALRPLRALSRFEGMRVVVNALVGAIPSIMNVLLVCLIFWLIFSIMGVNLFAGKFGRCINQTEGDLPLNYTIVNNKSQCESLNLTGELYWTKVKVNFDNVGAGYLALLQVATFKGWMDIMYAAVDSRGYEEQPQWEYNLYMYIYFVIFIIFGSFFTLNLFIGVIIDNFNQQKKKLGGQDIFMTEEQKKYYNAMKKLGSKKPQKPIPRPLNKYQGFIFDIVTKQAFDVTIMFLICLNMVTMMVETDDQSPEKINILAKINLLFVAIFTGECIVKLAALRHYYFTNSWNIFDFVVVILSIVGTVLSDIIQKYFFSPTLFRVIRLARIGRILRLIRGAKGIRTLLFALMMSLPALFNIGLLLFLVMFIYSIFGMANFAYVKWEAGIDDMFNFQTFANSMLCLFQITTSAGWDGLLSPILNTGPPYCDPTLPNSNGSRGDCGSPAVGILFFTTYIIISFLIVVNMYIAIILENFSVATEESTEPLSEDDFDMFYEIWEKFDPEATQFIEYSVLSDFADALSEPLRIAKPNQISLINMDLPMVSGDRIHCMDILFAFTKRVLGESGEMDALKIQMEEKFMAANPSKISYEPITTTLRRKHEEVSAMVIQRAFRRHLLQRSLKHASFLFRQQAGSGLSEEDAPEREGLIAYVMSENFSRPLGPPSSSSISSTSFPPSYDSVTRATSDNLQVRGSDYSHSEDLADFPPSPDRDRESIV
T11 sequence (Q15858 whole entry): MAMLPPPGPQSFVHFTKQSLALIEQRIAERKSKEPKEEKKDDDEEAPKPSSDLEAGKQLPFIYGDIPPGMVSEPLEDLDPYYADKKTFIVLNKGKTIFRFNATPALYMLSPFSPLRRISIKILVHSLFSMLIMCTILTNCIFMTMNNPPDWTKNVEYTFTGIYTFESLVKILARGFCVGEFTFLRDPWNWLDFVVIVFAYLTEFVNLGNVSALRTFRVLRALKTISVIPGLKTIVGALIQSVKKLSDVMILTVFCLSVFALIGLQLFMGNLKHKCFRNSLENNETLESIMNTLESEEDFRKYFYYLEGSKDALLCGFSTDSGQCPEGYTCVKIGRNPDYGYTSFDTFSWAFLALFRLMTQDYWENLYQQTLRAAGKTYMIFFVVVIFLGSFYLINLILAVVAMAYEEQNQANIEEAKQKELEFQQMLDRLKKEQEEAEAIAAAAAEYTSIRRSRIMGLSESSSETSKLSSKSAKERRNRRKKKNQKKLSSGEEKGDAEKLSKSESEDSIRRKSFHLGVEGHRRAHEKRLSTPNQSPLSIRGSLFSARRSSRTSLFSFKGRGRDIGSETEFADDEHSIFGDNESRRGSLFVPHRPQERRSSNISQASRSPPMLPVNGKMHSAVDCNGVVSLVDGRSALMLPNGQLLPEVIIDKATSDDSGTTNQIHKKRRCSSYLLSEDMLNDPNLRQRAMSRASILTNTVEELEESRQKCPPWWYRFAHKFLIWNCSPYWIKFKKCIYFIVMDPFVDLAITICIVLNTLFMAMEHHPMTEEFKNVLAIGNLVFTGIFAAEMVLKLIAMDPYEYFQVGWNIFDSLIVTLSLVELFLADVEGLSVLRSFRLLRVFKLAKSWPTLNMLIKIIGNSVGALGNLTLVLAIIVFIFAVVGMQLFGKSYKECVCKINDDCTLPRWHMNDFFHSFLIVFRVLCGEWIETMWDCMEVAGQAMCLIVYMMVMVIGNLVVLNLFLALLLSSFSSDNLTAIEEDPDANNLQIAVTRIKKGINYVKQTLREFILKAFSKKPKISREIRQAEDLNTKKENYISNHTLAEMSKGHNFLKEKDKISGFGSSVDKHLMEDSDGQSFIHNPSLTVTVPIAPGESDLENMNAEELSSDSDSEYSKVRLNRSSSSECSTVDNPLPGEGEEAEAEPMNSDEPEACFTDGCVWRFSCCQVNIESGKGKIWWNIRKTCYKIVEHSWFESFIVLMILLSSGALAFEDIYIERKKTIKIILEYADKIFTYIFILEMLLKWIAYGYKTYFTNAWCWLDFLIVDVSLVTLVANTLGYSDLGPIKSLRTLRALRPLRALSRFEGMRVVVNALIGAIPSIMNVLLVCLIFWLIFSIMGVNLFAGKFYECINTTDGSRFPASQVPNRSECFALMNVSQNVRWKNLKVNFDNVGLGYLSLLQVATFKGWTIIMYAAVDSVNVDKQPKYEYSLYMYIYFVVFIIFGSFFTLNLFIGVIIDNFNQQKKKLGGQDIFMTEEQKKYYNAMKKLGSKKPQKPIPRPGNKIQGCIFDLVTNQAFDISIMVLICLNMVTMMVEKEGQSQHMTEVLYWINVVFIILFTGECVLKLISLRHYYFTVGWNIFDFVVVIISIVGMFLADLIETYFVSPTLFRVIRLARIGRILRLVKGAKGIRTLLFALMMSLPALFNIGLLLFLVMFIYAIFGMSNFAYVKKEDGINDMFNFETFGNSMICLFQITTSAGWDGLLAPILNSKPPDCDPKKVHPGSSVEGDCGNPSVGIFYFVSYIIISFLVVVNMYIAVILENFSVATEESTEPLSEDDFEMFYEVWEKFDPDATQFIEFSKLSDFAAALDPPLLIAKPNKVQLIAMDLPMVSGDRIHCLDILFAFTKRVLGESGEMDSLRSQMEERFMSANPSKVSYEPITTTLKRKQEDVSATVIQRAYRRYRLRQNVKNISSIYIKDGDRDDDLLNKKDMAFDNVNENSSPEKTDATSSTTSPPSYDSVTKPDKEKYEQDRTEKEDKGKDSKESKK
T6 sequence (Q14721 whole entry): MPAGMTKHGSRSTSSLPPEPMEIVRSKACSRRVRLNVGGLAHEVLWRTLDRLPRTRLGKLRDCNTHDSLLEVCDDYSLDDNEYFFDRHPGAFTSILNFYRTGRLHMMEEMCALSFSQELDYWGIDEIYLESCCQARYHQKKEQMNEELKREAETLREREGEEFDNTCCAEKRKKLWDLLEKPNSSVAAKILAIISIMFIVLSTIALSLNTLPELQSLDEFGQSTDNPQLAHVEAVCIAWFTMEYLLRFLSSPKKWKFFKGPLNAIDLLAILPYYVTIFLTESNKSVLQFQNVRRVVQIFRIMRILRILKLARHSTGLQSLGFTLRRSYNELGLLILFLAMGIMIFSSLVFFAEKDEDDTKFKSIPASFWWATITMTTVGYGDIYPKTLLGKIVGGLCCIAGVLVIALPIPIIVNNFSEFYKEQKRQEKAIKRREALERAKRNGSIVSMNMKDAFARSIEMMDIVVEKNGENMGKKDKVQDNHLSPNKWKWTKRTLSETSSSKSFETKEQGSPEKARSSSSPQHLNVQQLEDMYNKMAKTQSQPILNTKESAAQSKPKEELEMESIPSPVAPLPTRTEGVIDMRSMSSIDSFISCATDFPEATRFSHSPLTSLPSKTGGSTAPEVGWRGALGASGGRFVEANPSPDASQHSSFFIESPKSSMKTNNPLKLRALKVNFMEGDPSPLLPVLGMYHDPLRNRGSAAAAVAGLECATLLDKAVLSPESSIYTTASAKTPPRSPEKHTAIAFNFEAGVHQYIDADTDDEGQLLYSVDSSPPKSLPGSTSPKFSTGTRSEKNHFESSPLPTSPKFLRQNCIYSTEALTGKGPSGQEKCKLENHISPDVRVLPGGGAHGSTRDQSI

## 9 (GSGCFGYKCDYYKGCCSGYVCSPTWKWCVRPGPGR) [compound 9]
5HT3a
  Activity of 5HT3a with peptide (percentage of the reference compound): 73%
  Activity of 5HT3a with peptide, expressed as a percentage of the reference compound: 107%
α3β4; peptide at 0.2 μM
  Activity of a3b4 with peptide, expressed as a percentage of the reference compound: 105%
α3β4; peptide at 20 μM
  Activity of a3b4 with peptide (percentage of the reference compound): 103%
α4β2; peptide at 0.2 μM
  Activity of a4b2 with peptide, expressed as a percentage of the reference compound: 96%
α4β2; peptide at 20 μM
  Activity of a4b2 with peptide (percentage of the reference compound): 81%
Cav2.1; peptide at 0.2 μM
  Activity of Cav2.1 with peptide, expressed as a percentage of the reference compound: 111%
Cav2.1; peptide at 20 μM
  Activity of Cav2.1 with peptide (percentage of the reference compound): 108%
Cav2.2; peptide at 0.2 μM
  Activity of Cav2.2 with peptide, expressed as a percentage of the reference compound: 109%
Cav2.2; peptide at 20 μM
  Activity of Cav2.2 with peptide (percentage of the reference compound): 102%
Kv2.1; peptide at 0.2 μM
  Activity of Kv2.1 with peptide, expressed as a percentage of the reference compound: 112%
Kv2.1; peptide at 20 μM
  Activity of Kv2.1 with peptide (percentage of the reference compound): 99%
GABA; peptide at 0.2 μM
  Activity of GABA with peptide, expressed as a percentage of the reference compound: 99%
GABA; peptide at 20 μM
  Activity of GABA with peptide (percentage of the reference compound): 98%
Nav1.5; [1]
  Activity of Nav1.5 with peptide, expressed as a percentage of the reference compound: 104%
  Activity of Nav1.5 with peptide (percentage of the reference compound): 109%
Nav1.5; [2]
  Activity of Nav1.5 with peptide, expressed as a percentage of the reference compound: 103%
  Activity of Nav1.5 with peptide (percentage of the reference compound): 110%
hERG; peptide at 0.2 μM
  Activity of hERG with peptide, expressed as a percentage of the reference compound: 104%
hERG; peptide at 20 μM
  Activity of hERG with peptide (percentage of the reference compound): 98%
Kir2.1; peptide at 0.2 μM
  Activity of Kir2.1 with peptide, expressed as a percentage of the reference compound: 105%
Kir2.1; peptide at 20 μM
  Activity of Kir2.1 with peptide (percentage of the reference compound): 103%
Kv1.1; peptide at 0.2 μM
  Activity of Kv1.1 with peptide, expressed as a percentage of the reference compound: 103%
Kv1.1; peptide at 20 μM
  Activity of Kv1.1 with peptide (percentage of the reference compound): 97%
Kv1.2; peptide at 0.2 μM
  Activity of Kv1.2 with peptide, expressed as a percentage of the reference compound: 120%
Kv1.2; peptide at 20 μM
  Activity of Kv1.2 with peptide (percentage of the reference compound): 104%
Kv1.3; peptide at 0.2 μM
  Activity of Kv1.3 with peptide, expressed as a percentage of the reference compound: 107%
Kv1.3; peptide at 20 μM
  Activity of Kv1.3 with peptide (percentage of the reference compound): 89%
Nav1.7; [3]
  Activity of Nav1.7 with peptide, expressed as a percentage of the reference compound: 108%
  Activity of Nav1.7 with peptide (percentage of the reference compound): 94%
Nav1.7; [4]
  Activity of Nav1.7 with peptide, expressed as a percentage of the reference compound: 110%
  Activity of Nav1.7 with peptide (percentage of the reference compound): 114%
NR2A; peptide at 0.2 μM
  Activity of NR2A with peptide, expressed as a percentage of the reference compound: 89%
NR2A; peptide at 20 μM
  Activity of NR2A with peptide (percentage of the reference compound): 87%
NR2B; peptide at 0.2 μM
  Activity of NR2B with peptide, expressed as a percentage of the reference compound: 77%
NR2B; peptide at 20 μM
  Activity of NR2B with peptide (percentage of the reference compound): 85%
TRPA1; peptide at 0.2 μM
  Activity of TRPA1 with peptide, expressed as a percentage of the reference compound: 131%
TRPA1; peptide at 20 μM
  Activity of TRPA1 with peptide (percentage of the reference compound): 112%
TRPV1; peptide at 0.2 μM
  Activity of TRPV1 with peptide, expressed as a percentage of the reference compound: 112%
TRPV1; peptide at 20 μM
  Activity of TRPV1 with peptide (percentage of the reference compound): 79%
